From PMC9943658 (Nucleic Acids Research, 2023)

B1: His-T7-hnRNP C1 wild type (natural protein, UniProt P07910-2 1-293, looked up)
chain: MASNVTNKTDPRSMNSRVFIGNLNTLVVKKSDVEAIFSKYGKIVGCSVHKGFAFVQYVNERNARAAVAGEDGRMIAGQVLDINLAAEPKVNRGKAGVKRSAAEMYGSSFDLDYDFQRDYYDRMYSYPARVPPPPPIARAVVPSKRQRVSGNTSRRGKSGFNSKSGQRGSSKSGKLKGDDLQAIKKELTQIKQKVDSLLENLEKIEKEQSKQAVEMKNDKSEEEQSSSSVKKDETNVKMESEGGADDSAEEGDLLDDDDNEDRGDDQLELIKDDEKEAEEGEDDRDSANGEDDS
B2: His-T7-hnRNP C1 ΔRRMΔBASIC (natural protein)
chain: MASNVTNKTDPRSMNPKVNRGKAGVKRSAAEMYGSSFDLDYDFQRDYYDRMYSYPARVPPPPPIARALQAIKKELTQIKQKVDSLLENLEKIEKEQSKQAVEMKNDKSEEEQSSSSVKKDETNVKMESEGGADDSAEEGDLLDDDDNEDRGDDQLELIKDDEKEAEEGEDDRDSANGEDDS
B3: His-T7-hnRNP C1 ΔBASIC (natural protein)
chain: MASNVTNKTDPRSMNSRVFIGNLNTLVVKKSDVEAIFSKYGKIVGCSVHKGFAFVQYVNERNARAAVAGEDGRMIAGQVLDINLAAEPKVNRGKAGVKRSAAEMYGSSFDLDYDFQRDYYDRMYSYPARVPPPPPIARALQAIKKELTQIKQKVDSLLENLEKIEKEQSKQAVEMKNDKSEEEQSSSSVKKDETNVKMESEGGADDSAEEGDLLDDDDNEDRGDDQLELIKDDEKEAEEGEDDRDSANGEDDS

Biological target: the molecule itself
Test: SEC

| Protein | stoichiometry N |
| --- | --- |
| B1 | 4 |
| B2 | 4 |
| B3 | 4 |
